Results taken from the DeepSol protein solubility set.

test: soluble on expression in E. coli; label from the status in PepcDB or PDB records

Soluble on expression in E. coli, soluble:
ADVILFPSKNGAVTFTHKRHSEFVRECRSCHEKTPGKIRNFGKDYAHKTCKGCHEVRGAGPTKCKLCHTG, KEKVKEPVKHLNSKNFDEFITKNKIVVVDFWAEWCAPCLILAPVIEELANDYPQVAFGKLNTEESQDIAMRYGIMSLPTIMFFKNGELVDQILGAVPREEIEVRLKSLLE, MSLQNAYWLTNVRLETGYKFNNEVVTGTETALHHLLIQDGKIEKIVLADVPLQTEYETKDAKELLVLPSFVENHFHLDKTKLGGPWEACTPVKNIIERLELEQQELPILAQTTGERAELLLRNILNAGSTHIRTHVNIDPYIGLKNLESVRQTLENMKDAFTYEIVAFPQHGLLRTEAHSLMREAMKMGATLVGGVDPATVDNNIEKSLFDMMEIAVEANADVDLHLHDAGHLGIYTIKKLAQYTEEASWDGRVAVSHAFSLGDVSKEEGADMADLLAERGMSIITTVPINRNMPPVPLLTEKGVPISLGCDSMFDSWGPFGNADIFERVGRLAEKYRWMDEKSLASSLAYITGGKTPLDQEGNQVWPKVGDKADFVFLQATCSAEAIARRAKRPAVMRDGKIVAGSLQHVQGVLIEGHHHHHH, MSLSRQRCIIVGASHGGVNLAFALRKEGYEGRITLIDADCNLPYHRPPLSKTHLIANEPAGQLLKPEQGYQKADISLMLGVSVVDVKSKNKQVLLDDGTRHPYTQLVLATGASPITPPIPGIDSAKHLYTIRTADDAHAIATAFKQSEQKRVVVIGGGYVGLETAASLRKSGAVVTVLEREPRLLARVTAPMMSDYFYALHRQHGVEVHNDKNVSEIKTNANENSVVCSDGSEYPADIIIVGVGVRVNTALADKANLEINNGIVVNEANQTSAQDIFAIGDCCAQFNPHYQRWLRLESVQNALDQGKVAAAAICHKAFKTQPVPWFWSDQYNIKLQMVGLSQGYDDVVMRKELDKPDSFSVWYFKGNELLAVDAVNNAKAYVLGTKFINAMEQVDKNKLTDNSAPLSASIIKEFAEGHHHHHH, GSHMDLETLRARREAVLSLCARHGAVRVRVFGSVARGEAREDSDLDLLVAFEEGRTLLDHARLKLALEGLLGVRVDIVSERGLAPRLREQVLREAIPL, VFHPVECSYCHSESMMGFRYRCQQCHNYQLCQDCFWRGHAGGSHSNQHQMKEYTSW, MAHHHHHHMPKSSPPDEHKVLIKKLTHACASYDSASRKYLTAVKALDSSLEAVAIAIRELSQGEESEDAVTRVDRFCTSVDRHMAGSSAGASFGHNKSGRLSDSAAFNGAEYPFAAYMSDFTREVSSAVDELKEILKKIEKSRSKHDDLVAKYNKKRSEVDTMEMKLAKKNQGIATNEKYSHKLSDRDALKVQVDTGERELRAEFMELLQRRTRILLQVVHGMQTHSSKYYSHLSKAMQA, MCMVMREYNKERLRKAIELWYREEGVRIIKDRVEHYLKFYPVKPRSIKVKEQKRRWGSCTYYNDLLFNWRCIMAPLKVVDYIVVHEMTHMVHKDHSKNYWNFVSKIIPNYKEQKMWLKENGIIMDIMAGDPLEHHHHHH, GMDNSEEKKLEALGAFEISRKMLALAQKNEKSNIFLNAGRGNPNWIQTLARLAFVRLVQFGVTESKLTINNGIMAGYINTDGIRERLFAFLDPDKNDEDKFLIDAVNYCHTELGLNRDKVVAEWVNGAVANNYPVPDRCLVNTEKIINYFLQELSYKDANLAEQTDLFPTEGGTAAIVYAFHSLAENHLLKKGDKIAINEPIFTPYLRIPELKDYELVEVDLHSYEKNDWEIEPNEIEKLKDPSIKALIVVNPTNPTSKEFDTNALNAIKQAVEKNPKLMIISDEVYGAFVPNFKSIYSVVPYNTMLVYSYSKLFGCTGWRLGVIALNEKNVFDDNIAHLDKVELRQLHKRYSSVVLDPDKMKFIDRLCADSRSIGLYHTAGLSTPQQIMEALFSMTHLLTSTNGGSDDPYIDIARKLVSERYDQLHDAMQAPKDETDTNTHYYSLIDIYRLAEKIYGKEFRDYLTNNFEQVDFLLKLAEKNGVVLVDGVGFGAKPGELRVSQANLPTEDYALIGKQVLELLKEYYEEFKQNN

Soluble on expression in E. coli, not soluble:
MGSDKIHHHHHHMKEVKDFYDKWEPEDFPNYIKLLMNFADELIFEEISLLLKKFENKKDFLVLDCGCGFGAFYNLTKDFNTIYLDISLNLLKRFKLKERKICANILHLPFKDNTFDLVLCINVLEHVNYLKALNEIRRILKNKGKLIVVVVNKDSLIKEEIFNDFKIFHKPLSIKDFEIDGFKIVYSNSVYFLPSIFKISPPIILSKIIEYWKPVDKKLSKIFKNKGQFLIIEMVKE, DDFVSLGTSGWHARVVSTVSDPSEVRQFALPDGGILRIASVLSVGGTADWARSVLLPGVSAKEADALMLQRPRLATGLLSLPSIQGESFPVRSHSVGGCILGMRGNQDPLTLYTAVIEGICMTLAHDIKPGGILPATGGGARSVPWMRILASVTNRNIHVTVSEDAALHGAASLAAYATSAEYLPTLAARAIVEIEPEPEVVASFEPLIAKHLELFRFAAALSY, MGRKEMLQNGVQQVFYEEEWYPPISEAVKNLTVEQACWQPEGAASNTIWENVNHLLIFKERLLSRLHEDDTFVAPQNNDETFIQGGPNDDAAWQQTVKRTLQVHDALQSSLTALQEAELDQLSPSLPVWQQYMNILLHDAYHTGQIIQLRKLQGSWPTHRSYL, MAHHHHHHMNVRKSILNYLILHSSIVRRNHNKSYQKECRQSGSLNWMEKNRKMKSVRPNYFVCIPLSGNKGLVEELIKVQNHVASKFEMLKECAIERNKFHISLLILHVKKSQMVASKEAFREAIEEIKKLNHQAISFDTLETFRNDVLYAGLKEDSRKYVVNMIALLRDAFTKRDIHIFSNHKGKEEAREKTRPSGAIDKGIGNRTDKGAAVPSTYQCSEKEQITPHVTIMKNSYLRKIYANRKPQIFADYYADFNLSKLQTERVVPNKIQFLEMDTDSATSYYRVIDECGLP, MGSDKIHHHHHHNEKGGGTGSSSVGADTEPSVTGVHWTVDSVTVNGTTHQAPDGAHVEIAEDGRATGNYGCNSFHSTATFKGDRITLSRTLSTEMACEKRPMEFETTLARALAAGPLTAEAGQGKLTLTTAKGDRVHLTEEKDAPLYGTKWTVNSLIGGDVAQSLPAAADGKAWLTFTKKSESGDKKSGEKERGDKEVGTVSGSLGCNRVSAMATVRGSHITLGAPRTTRQMCSGSLMTTEKSLLKLFDSTVSYRIDHRAITLTSENGEGIGAIADR, MTNKEIKKLCRSFGADLVGVASVERFVNAPKGYHPTDVMPTAKSVISLGMVLPKDILEQDIRTYTDIRNEAVKKMDKVAADVAAELKGLKYKAVSIVSLSGKFVDGHFRSRVSLKHAAELAGLGVIARNYLLTNDKYGNLLWFTAVVTSLELEPDPLATYQVCNNCNLCVDLCPSGALTDENNFSQKGCRKVCYITVKGVLELRCWQCRNVCPYKHGIND, MAMYEQRYNSPFLVHDDGPNAPLEHQFAISKLTFELGLLYYQKRTIPFIPLPETPLNEGPGHAVPDVILYDAVAEDTKVIIEVCQNNGQKNDLKKVIRLIEDTEYGILEGFVYNYKSREWFRYRKGDGGAATASSVSEVMGIDMGGFV, MSDPRDLMSEFQKLRVETSKIQNEFKEKPGYVEDKLHKNTQEICQQILKKQGKSQKSQENQNAFIENLMSELKTAKSKLNETENQISDLHEATKQQESQANLWNDLVAKISDKNLEMMLKIQKSQDLMIMKMQEGSAVQDVPIETEKSAKNGPFFEILVIWTDSRGPVVPGNHGKLRVCGSDTIRQIKPRINSLAGIDTISFRTFCDDKFLEDDHTLAHYNIREGSTICVFFH, MGSDKIHHHHHHMSIAAEKISSEALFDLLEIFDNQPWMRDLHAELAELWNACETREEQHLLKFLLKKFFLLDAQKEKLALYGISKKIQEWGLNPASTWIVAAANKDEIDGSSAGLQKLKNKINPIEEWHSRFISNIPSASNKVKSGDTIILFDDFIGTGGKMIKKTAWLKRLVTKFDPRNLKFYYVSFSGMQFGLTSLAAETACTTYAHFIFTKAISEALPEQEALTLISAMKSIEERLAVRHKNKQLNDYSLGYEKSEALYCGQNDNCPNNVFPVFWWPSMKNGNNRKTLLKRAG, MIVIIDYDTGNTKSISKALDFIGLQNKISSDATEISQADGVILPGVGAYPEAMKELTRRGLNKTLKEIAAGGKPILGVCLGMQLLLESSNEHSFTNGLGLIPGHVEKLPEDPEFAVPHMGWNQLQIKRATPLTKQLDGEYVYYVHSYYANCPEEYIIATSGYSIEVPGMINKGNIYGAQFHPEKSGQIGLEILKGFKEVTYSCKSSQQ
